The term Tm denotes the temperature at the midpoint of the melting transition.

This data set can be described thus: melting temperature; UV melt of duplexes.

In the case of “TAGTGGCGATTAGATTCTGC+GCAGAATCTAATCGCCACTA ((((((((((((((((((((+))))))))))))))))))))”, the Tm was determined as 57 °C (sodium 0.07 M, strand 2 µM); 60.6 °C (sodium 0.12 M, strand 2 µM); 64.8 °C (sodium 0.22 M, strand 2 µM); 69.1 °C (sodium 0.62 M, strand 2 µM); 71.2 °C (sodium 1.02 M, strand 2 µM).

For the substance “TGGATTCTACTCAACCTTAGTCTGG+CCAGACTAAGGTTGAGTAGAATCCA (((((((((((((((((((((((((+)))))))))))))))))))))))))”, the Tm (sodium 0.07 M, strand 2 µM) stood at 59 °C; the Tm (sodium 0.12 M, strand 2 µM) worked out at 63.1 °C; the Tm (sodium 0.22 M, strand 2 µM) was determined as 67.1 °C; the Tm (sodium 0.62 M, strand 2 µM) was 71.3 °C; the Tm (sodium 1.02 M, strand 2 µM) was 73.6 °C.

Consider “CCCTGCACTTTAACTGAATTGTTTA+TAAACAATTCAGTTAAAGTGCAGGG (((((((((((((((((((((((((+)))))))))))))))))))))))))”, for which the Tm worked out at 57.4 °C (sodium 0.07 M, strand 2 µM); 61.4 °C (sodium 0.12 M, strand 2 µM); 65.6 °C (sodium 0.22 M, strand 2 µM); 70.1 °C (sodium 0.62 M, strand 2 µM); 72.5 °C (sodium 1.02 M, strand 2 µM).

For the substance “AGATCATATATATCGAT+ATCGATATATATGATCT (((((((((((((((((+)))))))))))))))))”, under “sodium 0.12 M, strand 4 µM”, the Tm is 49.2 °C.

The values are drawn from the array DNA melting data of Ke et al..
